± gives the half width of the 95% confidence interval.

Series [1] in a line: folding stability dG unfold from trypsin proteolysis; higher = more stable. A digest of the protocol: (§1)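 Only designs with AlphaFold2 dimer inter-PAE above 15 were retained; each was a mini-protein under 80 residues with no cysteine, in a PA-tagged cDNA display construct. After digestion with trypsin and chymotrypsin and sequencing, K50 was inferred by Bayesian fitting of counts, and unfolding free energy was derived per protease or combined against a sequence-predicted unfolded-state K50 and a shared folded-state K50.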

A short description of series [2]: folding stability dG unfold (combined trypsin and chymotrypsin); higher = more stable. The procedure, abridged:
as §1

A short description of series [3]: folding stability dG unfold from chymotrypsin proteolysis; higher = more stable. A digest of the protocol: as §1

Take “SAGGEVKVEIKYDKKKNKIEIKVIVRDKETGEWKELSAEEIAKLLKKKLKLPNVKEIKVEVYEPGEKPSAGG [r13_327_TrROS_Hall]”: the “folding stability dG unfold” value in series [1] came to 1.31 ± 0.11 kcal/mol; in series [2] it was 1.97 ± 0.18 kcal/mol; in series [3], 1.98 ± 0.12 kcal/mol.
Turning to “SAGGEVLVIELSLEELKNLKPNQTVKIKLPDGSELEVRVEEVDGRLYLFVRNKENPEEVELIEEITIESAGG [r13_745_TrROS_Hall]”, the “folding stability dG unfold” value in series [1] amounted to 2.79 ± 0.062 kcal/mol; in series [2], 3.3 ± 0.065 kcal/mol; in series [3] it was 3.48 ± 0.049 kcal/mol.
On to “SAGGEYTVVSVLEERKDPATGKTVTLELLKDPNSNVLYRRVTTTDPANPDVVTTTLYDAAGNKVSTVSSAGG [r13_658_JUSTAS]”, for which the “folding stability dG unfold” value in series [1] was 2.17 ± 0.046 kcal/mol; in series [2], 2.48 ± 0.095 kcal/mol; in series [3] it was 2.62 ± 0.055 kcal/mol.
As for “SAGGFIVVPIKAKSLEEALEKAREIAAALGIPGTLEDPRVDLDDFLKNYKPDTEVRVYVRHPDGVIDELSAG [r5_503_TrMRF]”, the “folding stability dG unfold” value in series [1] came out at 1.23 ± 0.033 kcal/mol; in series [2], 0.878 ± 0.11 kcal/mol; in series [3], 0.223 ± 0.21 kcal/mol.
Take “SAGGFKIKNIDVERNPDNGWRTITVEFPGNGWKFQIQVPPDGGVKYEWYNNGEPQTYTIPADDLKDLSAGGS [r8_238_TrROS]”: the “folding stability dG unfold” value in series [1] is 1 ± 0.06 kcal/mol; in series [2], 1.2 ± 0.08 kcal/mol; in series [3], 1.34 ± 0.082 kcal/mol.
For “SAGGFWLKNPNGHYIQVNVEVEWEPRRDPDNGKPTWEPKIEINVEVYDPNGEKRPIPEDQAKDLLKKLSAGG [r13_809_TrROS]”, the figures for the “folding stability dG unfold” value in series [1], in series [2] and in series [3] were 0.604 ± 0.073 kcal/mol, 1.31 ± 0.11 kcal/mol and 1.64 ± 0.082 kcal/mol, respectively.
With “SAGGGAAEEAARALIDEAKAALGLSEISEVVLTREGDGVTMTVRFPGKGLVITIDLAAGVVTAVEDVSAGGS [r16_171_JUSTAS]”, the figures for the “folding stability dG unfold” value in series [1], in series [2] and in series [3] were 2.18 ± 0.034 kcal/mol, 2.11 ± 0.035 kcal/mol and 2.018 ± 0.0088 kcal/mol, respectively.
For “SAGGGANIEGVEIYRIPDLDKYLVVVPSPAPEGAEITITVRLPNGPFTKTFVAKYRPLPGNRHVFVGSAGGS [r8_195_TrMRF]”, the “folding stability dG unfold” value in series [1] is 1.23 ± 0.056 kcal/mol; in series [2], 1.03 ± 0.12 kcal/mol; in series [3] it was 0.789 ± 0.15 kcal/mol.
For the sequence “SAGGGEIKIEIYRHPDTIMIRVKWDNPQQLKEEIIELFREENGFKPKEVSVQYNPNGYLYIMFEFKPKSAGG [r13_158_TrROS]”, the entries for the “folding stability dG unfold” value in series [1], in series [2] and in series [3] were 2.59 ± 0.12 kcal/mol, 3.64 ± 0.21 kcal/mol and 4.12 ± 0.086 kcal/mol, respectively.
Regarding “SAGGGELYIMFKFDFTFWINNGTISFDMYIMIRIPIPPPPVPIELEDDPDGSYKYEYPNGKEHEVPNSAGGS [r16_136_TrROS]”, the “folding stability dG unfold” value in series [1] is 3.15 ± 0.1 kcal/mol; in series [2], 3.23 ± 0.22 kcal/mol; in series [3], 3.16 ± 0.079 kcal/mol.
For “SAGGGFEEIIEKAIAKAKELFPDTGAVVPITETVYDPVKKKPIVIEVLVEFDKDGKIKKVEILKISELSAGG [r13_770_TrMRF]”, the “folding stability dG unfold” value was 2.86 ± 0.2 kcal/mol in series [1], 2.09 ± 0.11 kcal/mol in series [2] and 1.34 ± 0.044 kcal/mol in series [3].
The matching figures for “SAGGGFSVSTGTLTDPVTGKPITLTVTNLPDGVSRVTVTLEDGKTFEFTFPANNPPTPEQVAEAVKAFSAGG [r13_492_TrMRF]”: 3.64 ± 0.078 kcal/mol, 3.64 ± 0.04 kcal/mol and 3.631 ± 0.024 kcal/mol.
Regarding “SAGGGGSMTIVVPVEVSPETSEEEVRKRAEEIARPIAEELGKKVSIEVSREEDPEGGRRWTATITILSAGGS [r16_279_JUSTAS]”, the “folding stability dG unfold” value in series [1] was 2.88 ± 0.056 kcal/mol; in series [2] it was 2.71 ± 0.046 kcal/mol; in series [3], 2.6 ± 0.017 kcal/mol.
The matching figures for “SAGGGGSTPVSSYSYPLPDGSTATITISSKNPDSDIYSFTVTLSDGTTVPLDVPLSESVEEAIARVLTSAGG [r13_470_JUSTAS]”: 2.31 ± 0.086 kcal/mol, 2.27 ± 0.092 kcal/mol and 2.19 ± 0.076 kcal/mol.
“SAGGGHMVNVTLTGSSIEEIKKELEELAKKYGFVINPKKVEKLPGPKYKITLNIKAPDEVVELIKKKSAGGS [r8_357_JUSTAS]”: the “folding stability dG unfold” value in series [1] was found to be 0.943 ± 0.044 kcal/mol; in series [2], 1.72 ± 0.13 kcal/mol; in series [3] it was 2.16 ± 0.053 kcal/mol.
For the sequence “SAGGGIAEILEIREFEDGVEILILTDDLDDPEIIEELIDEIAEELGLPKEKIRAHIIPADIPPLPDEESAGG [r13_430_TrMRF]”, the entries for the “folding stability dG unfold” value in series [1], in series [2] and in series [3] were 1.22 ± 0.061 kcal/mol, 1.04 ± 0.24 kcal/mol and 1.18 ± 0.1 kcal/mol, respectively.
Take “SAGGGIEREVAPDEVVEIPIVRIEGDVAREETIEIRLPAGARIEPSGDKIRLWFPEEGKVLEIPLTELSAGG [r13_275_TrMRF]”: the entries for the “folding stability dG unfold” value in series [1], in series [2] and in series [3] were -0.0241 ± 0.065 kcal/mol, -0.0226 ± 0.096 kcal/mol and -0.079 ± 0.059 kcal/mol, respectively.
Turning to “SAGGGITITLPDGSVIEIEPVSTFTNEDGQPVTKIKATLTDPVTGTSVEADIYLFPDGGVKIDLKPGSAGGS [r16_651_TrMRF]”, the entries for the “folding stability dG unfold” value in series [1], in series [2] and in series [3] were 2.3 ± 0.051 kcal/mol, 2.35 ± 0.062 kcal/mol and 2.35 ± 0.031 kcal/mol, respectively.
“SAGGGKKYRVTLELTLPDGTKLTLEFEFEVVPPAVPKPVVTTSLDDIAEFDPETGTAIDKKNKKPIPLPSAG [r5_807_TrMRF]”: the “folding stability dG unfold” value in series [1] worked out at 1.5 ± 0.12 kcal/mol; in series [2], 2.66 ± 0.19 kcal/mol; in series [3] it was 3.1 ± 0.065 kcal/mol.
The matching figures for “SAGGGKTVVLVTHPDGTPTTITFDPEKPVATITYPDGTTETLPVPPDKTIADLAKALPADYTAVFAPASAGG [r13_696_TrMRF]”: -0.338 ± 0.13 kcal/mol, 0.419 ± 0.13 kcal/mol and 0.696 ± 0.069 kcal/mol.
Turning to “SAGGGLLEELARELGFEAEIEEIPETGILRITLRPEDGSEVEITVKVTRIPGLGEVKLEVLEVKVRPTSAGG [r13_936_TrMRF]”, the “folding stability dG unfold” value in series [1] came to 3.15 ± 0.16 kcal/mol; in series [2], 3.33 ± 0.2 kcal/mol; in series [3], 3.31 ± 0.052 kcal/mol.
Turning to “SAGGGLTEEQLEEEAREVAERVEKEFAEATGIEPVEILSVEVFPDGTVRITLRFKGKGGLVTYTIPLSAGGS [r16_622_TrMRF]”, the “folding stability dG unfold” value is 3.16 ± 0.096 kcal/mol in series [1], 3.42 ± 0.12 kcal/mol in series [2] and 3.58 ± 0.04 kcal/mol in series [3].
The matching figures for “SAGGGMGRIPLYGEERVEEIAAEPDVVSVEEDPETGRTYVYFERPDGYYSFTRDNETGEITEKTPLPSAGGS [r8_251_JUSTAS]”: -0.462 ± 0.23 kcal/mol, -0.237 ± 0.21 kcal/mol and -0.523 ± 0.5 kcal/mol.
As to “SAGGGMKLTITVTNADGSTTTETLTLGDLEKALEFLESDPTASLASIEIKPVPDTSEVEMNVSLTVPASAGG [r13_796_JUSTAS]”, the “folding stability dG unfold” value is 1.29 ± 0.056 kcal/mol in series [1], 1.47 ± 0.071 kcal/mol in series [2] and 1.55 ± 0.035 kcal/mol in series [3].
Taken in the same sequence, the figures for “SAGGGMMTLVTLEITIPKPPDPKTGKSRPLPLTLEFEVEADDPEALEERVEEELEKIGIPEEARKLLSAGGS [r16_40_JUSTAS]” were 0.471 ± 0.092 kcal/mol, 0.698 ± 0.2 kcal/mol and 0.547 ± 0.16 kcal/mol.
In the case of “SAGGGMNEKVIEIEVTVTAPDGKVTTNPTTVVSNSLEEVKASIKASIPPNWSITVTVLKTKSLKEVLSSAGG [r13_513_JUSTAS]”, the “folding stability dG unfold” value amounted to 0.667 ± 0.03 kcal/mol in series [1], 0.659 ± 0.095 kcal/mol in series [2] and 0.425 ± 0.081 kcal/mol in series [3].
As to “SAGGGMSVSELKKFFPNLKPGATFVLKDPNSDRTGTGTLLSDGTIKVQLPGSEVTVPDDTLVVSISASAGGS [r8_162_JUSTAS]”, the “folding stability dG unfold” value in series [1] is 0.585 ± 0.043 kcal/mol; in series [2], 0.321 ± 0.13 kcal/mol; in series [3], -0.237 ± 0.27 kcal/mol.
On to “SAGGGMTPVKKEYVVTLPVPPGMTEEEARELAERAAEELRPELEAKGLAYEVTFELSPEGLVTVTVVASAGG [r13_529_JUSTAS]”, for which the “folding stability dG unfold” value in series [1] turned out to be 2.19 ± 0.042 kcal/mol; in series [2] it was 2.31 ± 0.034 kcal/mol; in series [3] it was 2.41 ± 0.025 kcal/mol.
On to “SAGGGMTVETTSKETPLPDGSLRRTETITITEPGGKPLTRTTTKIWDPSTGKVLETRPVSNATVVAESSAGG [r13_1008_JUSTAS]”, for which the results for the “folding stability dG unfold” value in series [1], in series [2] and in series [3] were -0.944 ± 0.82 kcal/mol, -0.187 ± 0.14 kcal/mol and -0.0787 ± 0.15 kcal/mol, respectively.
The matching figures for “SAGGGMTVTIEVEGSIKKSIKGISYKDDKEKKESNKNKYLKKTITVTLTAEDDPNAAAAAIAALGLGSAGGS [r16_467_JUSTAS]”: 0.144 ± 0.23 kcal/mol, 0.181 ± 0.25 kcal/mol and 0.313 ± 0.21 kcal/mol.
“SAGGGPEEIRRAAEALAAELAAELGLEVVEVEVEVREDGTVTVRITVRLPDGSKLEITLTLPAGAPLSAGGS [r8_175_TrROS_Hall]”: the entries for the “folding stability dG unfold” value in series [1], in series [2] and in series [3] were 2.03 ± 0.05 kcal/mol, 1.65 ± 0.073 kcal/mol and 1.15 ± 0.038 kcal/mol, respectively.
As for “SAGGGPFGIPFPFPIEDPDRLDLVEGLVAELEEFFRSLGAGPLTAERVGDTTYVVLVPFDGKPIVSGSAGGS [r16_703_TrMRF]”, the “folding stability dG unfold” value was 1.51 ± 0.025 kcal/mol in series [1], 1.8 ± 0.089 kcal/mol in series [2] and 1.95 ± 0.066 kcal/mol in series [3].
On to “SAGGGPLRTVEVELEFETEEEAEKAIKEYLEKLGLPPEKVEVSFVSREERLVEDKIVYRYKFVFTLPSAGGS [r16_240_JUSTAS]”, for which the entries for the “folding stability dG unfold” value in series [1], in series [2] and in series [3] were 4.09 ± 0.13 kcal/mol, 4.98 ± 0.17 kcal/mol and 5.13 ± 0.13 kcal/mol, respectively.
On to “SAGGGSAWKVTAENLPADGYVKFPDGTTVPPGTELTVPLSAGYTDIRALDPEGNVVSVELVPLPEPKLSAGG [r13_441_JUSTAS]”, for which the “folding stability dG unfold” value in series [1] was -0.15 ± 0.14 kcal/mol; in series [2], -0.187 ± 0.18 kcal/mol; in series [3], -0.274 ± 0.29 kcal/mol.
Consider “SAGGGSDTVPPVPKATITFTLPAESPEEAEAAAEEIARELEEEGGIPATATVTTDPETGTVTVTITLESAGG [r13_517_TrMRF]”, for which the “folding stability dG unfold” value in series [1] came out at 0.971 ± 0.033 kcal/mol; in series [2] it was 0.855 ± 0.069 kcal/mol; in series [3] it was 0.672 ± 0.059 kcal/mol.
The matching figures for “SAGGGSISISLPAEELKALSPEDVIEVTAPDGTKIKAKPVKKGDTYPVTAEDPNNPKNATEMGTATLPSAGG [r13_745_JUSTAS]”: 0.0233 ± 0.084 kcal/mol, 0.176 ± 0.19 kcal/mol and 0.4 ± 0.095 kcal/mol.

These data come from the supplement of paper PMC12764529.
